From patent US20190091326A1

Tests used:
[1] = biological target: 1209 V1/V2/V3/C3 scaffold grown in kifunensine; experiment: ELISA, mAb titrated on scaffold, absorbance 492 nm; curve 509 (1209 kif)
[2] = biological target: A244-rgp120 grown in GnTI- cells (HIV-1 isolate A244); experiment: ELISA, mAb titrated on gp120, absorbance 492 nm; curve 495 (A244 gp120 GNTI-)
[3] = biological target: A244-rgp120 grown in kifunensine treated cells (HIV-1 isolate A244); experiment: ELISA, mAb titrated on gp120, absorbance 492 nm; curve 496 (A244 gp120 kif)

“PGT128 broadly neutralizing monoclonal antibody” gave an EC50 [1] of 0.09 µg/mL, an EC50 [2] of under 0.01 µg/mL and an EC50 [3] of under 0.01 µg/mL.
